According to patent US20170137838:
Read-outs that look alike come from different tables or passages of the source.

Test system: ONAC131 (Os12g03040.1) (Oryza sativa subsp. japonica cv. Nipponbare)
[1] = relative to SO1, SD 0.01, CELD assay
[2] = relative to SO1, SD 0.05, CELD assay
[3] = relative to SO1, SD 0.03, CELD assay

In the case of “GAGATCCGTGCACAGTACGTAACTGTTACA (double strand) [SO1 (TaNAC69 high affinity binding site I)]”, the binding signal (CELD reporter assay on streptavidin plate, reference, SD 0.03, pH 7.0, 50 mM KCl, 2 mM MgCl2) is reported as 1.

Work on “GAGATCTGTGCACAGTACGTAACTGTTACA (double strand) [SO1m28]” yielded a binding signal [1] of 0.01.

With “GATTTGTCTCGTAATTTACACGTAATCTGTGT (double strand) [Rice ZIM family protein promoter element]” the binding signal [2] was 0.43.

“GCCAGCGTTCTGTTTCTGTACGTCTCTCTGGG (double strand) [Arabidopsis glyoxalase I family 5'-UTR element]” was tested, and the binding signal (relative to SO1, SD 0.03, same sequence as rice chitinase site I) was 1.07.

With “CACTTGACACGTGGGATCCACGTCACCATCCT (double strand) [Rice glyoxalase I family promoter element]” the binding signal [3] was 0.29.

“GAGGTGTTTAATGTTTACACGTCTCTAGTG (double strand) [SO39 (TaNAC69 high affinity binding site II)]” was tested, and the binding signal [2] was 0.93.

In the case of “GCCAGCGTTCTGTTTCTGTACGTCTCTCTGGG (double strand) [Rice chitinase site I]”, the binding signal [3] is reported as 1.07.

In the case of “TTCCGTAGTTTACTGGATCACGACACACACAC (double strand) [Rice chitinase site III]”, the binding signal (relative to SO1, SD 0.02, CELD assay) is reported as 0.15.

“GAGGCCCTTAATGTTTACACGTCTCTAGTG (double strand) [SO39m6]” gave a binding signal [1] of 0.18.

For “GAGATCCGTGCACAGTAAATAACTGTTACA (double strand) [SO1m14]”, the binding signal (relative to SO1, CELD assay) was 0.

“AATCCACCGCCATAAATCTACGTAACAAGTCA (double strand) [Rice chitinase site II]” gave a binding signal (relative to SO1, CELD assay) of 0.
